Test results published in patent US20240343793A1 (TILLOTTS PHARMA, published 2024).

Columns and labels:
human C1q = human C1q (human, UniProt P02745 23-245; P02746 28-253; P02747 29-245); experiment: ELISA: antibody titrated onto plate-coated human TNFα, then human C1q at 0.5 µg/mL, detected with rabbit anti-human C1q and HRP anti-rabbit IgG, absorbance 620 nm
Procedure: ELISA was performed using 96-well MaxiSorp plates where the wells were coated with human TNFα diluted to 1 μg/mL in PBS. After incubation O/N at 4° C., the plates were blocked with PBS containing 4% skimmed milk for 1 h and washed four times with PBS containing 0.05% Tween-20 (PBS-T). Then, titrated amounts of the anti-TNFα IgG antibodies were diluted in PBS-T, added and incubated for 1 h at RT. After washing using PBS-T, human C1q (0.5 μg/mL) was diluted in 0.1 M Veronal buffer (0.25 mM CaCl₂ and 0.8 mM MgCl₂ pH 7.2), added to the wells and incubated for 1 h. Subsequently, the wells were washed as above before rabbit anti-human C1q diluted 1:5000 in PBS-T was added to the wells and incubated for 1 h. After washing, an HRP-conjugated anti-rabbit IgG from donkey diluted 1:5000 in PBS-T was added. Subsequently, the wells were washed and 100 μL 3,3′,5,5′-Tetramethylbenzidine substrate was added to each well. The absorbance was measured at 620 nm using a Sunrise spectrophotometer.

CD16a(V) [1] = target: T1, CD16a(V) (UniProt P08637 17-208); experiment: SPR (Biacore), His-tagged FcγR captured on anti-His chip, antibody as analyte
T1 construct: His-tagged; also called Fcγ receptor CD16a(V)
Procedure: (§1) Affinity to FcγRs was measured by Biacore. A CM5 chip was prepared using standard amine immobilisation Biacore procedures. Upon insertion of a CM5 chip the system was primed and then normalised with BIA-normalizing solution (Biacore Preventative Maintenance Kit 2). The chip was added to the system with Phosphate Buffered Saline Tween-20 (PBS-T) running buffer; prior to immobilisation the chip surface was primed with three injections of 50 mM NaOH. FcγRs were immobilised on the chip surface using a His-tag capture system. The anti-His tag chip was prepared according to the Biacore kit instructions, with ˜12000 RU's of the antibody deposited on all 4 flow cells. To remove non-covalently bound material from all the chip flow cells, three 30 second 10 mM glycine pH 1.5 washes were performed. The Fcγ receptors were diluted in PBS-T to a range of 0.5-2 μg/mL, with 2.5-5.0 μL injected onto the chip generating capture levels between 60 and 200 RU's. Antibodies were diluted into PBS-T prior to analysis. Single cycle kinetics were used to estimate the steady state affinity. For each single cycle analysis cycle a titration of 5 antibody concentrations were injected over the FcγR ligand and then the dissociation of the complex was measured. The surface was regenerated using the recommended solution, 10 mM glycine pH 1.5 for the anti-His capture surface. A double referencing method was employed in which data from the ligand bound capture surface (fc 2 and 4) were subtracted from the references surfaces where no ligand was captured (fc 1 and 3 respectively). Blank injections of buffer were run for every antibody titration cycle and then subtracted from analyte injection cycles, to correct for small changes in the ligand capture surface. All analysis was performed at 25° C. and the sample rack was incubated at 10° C. during experimental runs. Each experiment was run at least three times.

CD32a(H) = target: T2, CD32a(H) (UniProt P12318 36-218); experiment: as above
T2 construct: His-tagged; also called Fcγ receptor CD32a(H)
T2 sequence (looked up): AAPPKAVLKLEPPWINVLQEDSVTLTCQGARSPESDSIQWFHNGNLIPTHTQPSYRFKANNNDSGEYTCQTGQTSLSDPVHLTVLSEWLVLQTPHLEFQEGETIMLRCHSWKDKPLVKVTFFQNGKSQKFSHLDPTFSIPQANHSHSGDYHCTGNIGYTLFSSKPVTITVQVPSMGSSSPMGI
Procedure: as §1

CD32b = target: T3, CD32b (UniProt P31994 46-217); experiment: as above
T3 construct: His-tagged; also called Fcγ receptor CD32b
T3 sequence (looked up): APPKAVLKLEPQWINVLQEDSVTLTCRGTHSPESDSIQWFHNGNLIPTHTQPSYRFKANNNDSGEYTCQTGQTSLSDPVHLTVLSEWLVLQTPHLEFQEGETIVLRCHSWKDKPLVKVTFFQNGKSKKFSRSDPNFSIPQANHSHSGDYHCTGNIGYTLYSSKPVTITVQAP
Procedure: as §1

CD64 = target: T4, CD64 (UniProt P12314 16-288, limits assumed); experiment: as above
T4 construct: His-tagged (captured on an anti-His chip); also called Fcγ receptor CD64
Procedure: as §1

human TNFα [2] = target: T5, human TNFα (human, UniProt P01375 77-233); experiment: SPR (Biacore), antibody captured on Protein A, TNFα as analyte, single cycle kinetics, 25 C
T5 construct: also called recombinant TNFα
Procedure: Affinity to TNFα was measured by Biacore. A CM5 chip was prepared using standard amine immobilisation Biacore procedures. Upon insertion of a CM5 chip the system was primed and then normalised with BIA-normalising solution (Biacore Preventative Maintenance Kit 2). The chip was added to the system with PBS-T running buffer; prior to immobilisation the chip surface was primed with three injections of 50 mM NaOH. Protein A was immobilised on the chip surface. For this, the protein was diluted to 5 μg/mL into 10 mM acetate buffer at pH 4.5 and injected so to generate a bound response of ˜1000 RU's in all 4 flow cells. To remove non-covalently bound material from all the chip flow cells, three 15 second 50 mM NaOH washes were performed. On the Protein A chip, antibody was captured in flow cells 2 and 4, with flow cells 1 and 3 used for reference subtraction. The trial antibodies were diluted in PBS-T to 10 nM and 2.5-7.5 uL injected to obtain 120 RU of captured antibody. […] For each single cycle analysis cycle a titration of 5 analyte concentrations were injected over the ligand and then the dissociation of the complex was measured. The surface was regenerated using glycine pH 1.7. A double referencing method was employed in which data from the ligand bound capture surface (fc 2 and 4) were subtracted from the references surfaces where no ligand was captured (fc 1 and 3 respectively). Blank injections of buffer were run every 3-4 cycles and then subtracted from analyte injection cycles, to correct for small changes in the ligand capture surface. Repeat injections of analyte at the start and end of each analytical run were used to check for sample degradation, or changes in the instrument performance. All analysis was performed at 25° C. and the sample rack was incubated at 10° C. during experimental runs. Each experiment was run at least three times. A 1-to-1 binding model was used to fit the resulting kinetic data.

[3] = target: T6, monomeric His-tagged human FcRn (human, UniProt P55899 24-297; P61769 21-119); experiment: SPR (Biacore 3000), antibody amine-coupled, monomeric His-tagged hFcRn injected, pH 6.0; pH 6.0
T6 construct: also called hFcRn
Procedure: (§2) SPR was performed using a Biacore 3000 instrument with CM5 sensor chips coupled with anti-TNFα IgG1 antibodies (˜500 resonance units (RU)) using amine-coupling chemistry as described by the manufacturer. The coupling was performed by injecting 2.0 ug/mL of each protein in 10 mM sodium acetate, pH 4.5, using the amine-coupling kit (GE Healthcare). […] All SPR experiments were conducted at 25° C. with a flow rate of 40 ul/min. Binding data were zero-adjusted, and reference cell value subtracted. The Langmuir 1:1 ligand binding model provided by the BIAevaluation software (version 4.1) was used to determine the binding kinetics.

human TNFα [4] = target: T5, human TNFα; experiment: cell-based or functional assay
[5] = target: T6, monomeric His-tagged human FcRn; experiment: SPR, pH 6.0; KD against that of IFX; pH 6.0; fold change from IFX
Procedure: as §2

CD16b(NA2) = target: T7, CD16b(NA2) (UniProt O75015 17-200, limits assumed); experiment: SPR (Biacore), His-tagged FcγR captured on anti-His chip, antibody as analyte
T7 construct: His-tagged
Procedure: as §1

CD16a(F) = target: T8, CD16a(F) (UniProt P08637 17-208); experiment: as above
T8 construct: His-tagged
Procedure: as §1

[6] = target: T6, monomeric His-tagged human FcRn; experiment: SPR, pH 6.0; KD against that of Ab-wt; pH 6.0; fold change from wt
Procedure: as §2

CD32a(R) = target: T9, CD32a(R) (UniProt P12318 36-218); experiment: SPR (Biacore), His-tagged FcγR captured on anti-His chip, antibody as analyte
T9 construct: His-tagged; also called Fcγ receptor CD32a(R)
T9 sequence (looked up): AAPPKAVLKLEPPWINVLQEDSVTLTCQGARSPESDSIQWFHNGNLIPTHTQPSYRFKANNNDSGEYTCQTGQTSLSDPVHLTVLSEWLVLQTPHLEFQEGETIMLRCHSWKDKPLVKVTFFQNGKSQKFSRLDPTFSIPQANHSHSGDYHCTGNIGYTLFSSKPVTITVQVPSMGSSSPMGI
Procedure: as §1

CD16a(V) [7] = target: T1, CD16a(V); experiment: SPR (Biacore), His-tagged FcγR captured; reference not named in the sentence (Ab-wt by Table 5)
Procedure: Affinity to FcγRs was measured by Biacore. A CM5 chip was prepared using standard amine immobilisation Biacore procedures. Upon insertion of a CM5 chip the system was primed and then normalised with BIA-normalizing solution (Biacore Preventative Maintenance Kit 2). The chip was added to the system with Phosphate Buffered Saline Tween-20 (PBS-T) running buffer; prior to immobilisation the chip surface was primed with three injections of 50 mM NaOH. FcγRs were immobilised on the chip surface using a His-tag capture system. The anti-His tag chip was prepared according to the Biacore kit instructions, with ˜12000 RU's of the antibody deposited on all 4 flow cells. To remove non-covalently bound material from all the chip flow cells, three 30 second 10 mM glycine pH 1.5 washes were performed. The Fcγ receptors were diluted in PBS-T to a range of 0.5-2 μg/mL, with 2.5-5.0 μL injected onto the chip generating capture levels between 60 and 200 RU's. Antibodies were diluted into PBS-T prior to analysis. Single cycle kinetics were used to estimate the steady state affinity. For each single cycle analysis cycle a titration of 5 antibody concentrations were injected over the FcγR ligand and then the dissociation of the complex was measured. The surface was regenerated using the recommended solution, 10 mM glycine pH 1.5 for the anti-His capture surface. […]

T5 sequence (P01375 77-233 limits assumed): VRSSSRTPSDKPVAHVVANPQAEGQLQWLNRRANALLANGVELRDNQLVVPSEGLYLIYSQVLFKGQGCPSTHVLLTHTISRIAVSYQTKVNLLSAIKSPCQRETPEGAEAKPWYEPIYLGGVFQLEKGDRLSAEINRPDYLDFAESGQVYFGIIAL
T6 sequence (P55899 24-297 limits assumed, chain 1 of 2): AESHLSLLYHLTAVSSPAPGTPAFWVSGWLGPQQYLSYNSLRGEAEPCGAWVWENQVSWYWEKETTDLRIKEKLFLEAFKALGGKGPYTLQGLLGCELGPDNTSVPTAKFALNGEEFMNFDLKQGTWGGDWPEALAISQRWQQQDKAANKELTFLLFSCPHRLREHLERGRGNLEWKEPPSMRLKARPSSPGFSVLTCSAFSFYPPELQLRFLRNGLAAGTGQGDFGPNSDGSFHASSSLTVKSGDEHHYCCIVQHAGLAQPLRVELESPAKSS
T6 sequence (P61769 21-119 limits assumed, chain 2 of 2): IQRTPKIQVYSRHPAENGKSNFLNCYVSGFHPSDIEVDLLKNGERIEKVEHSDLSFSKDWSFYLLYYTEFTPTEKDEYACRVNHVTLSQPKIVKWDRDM
Sequence of human C1q (P02745 23-245, chain 1 of 3): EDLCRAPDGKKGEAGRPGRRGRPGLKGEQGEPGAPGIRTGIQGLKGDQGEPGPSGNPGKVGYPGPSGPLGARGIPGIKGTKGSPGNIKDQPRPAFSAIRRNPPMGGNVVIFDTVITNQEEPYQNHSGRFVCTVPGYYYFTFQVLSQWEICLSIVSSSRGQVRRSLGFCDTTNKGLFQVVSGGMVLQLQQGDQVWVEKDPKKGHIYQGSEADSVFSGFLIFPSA
Sequence of human C1q (P02746 28-253, chain 2 of 3): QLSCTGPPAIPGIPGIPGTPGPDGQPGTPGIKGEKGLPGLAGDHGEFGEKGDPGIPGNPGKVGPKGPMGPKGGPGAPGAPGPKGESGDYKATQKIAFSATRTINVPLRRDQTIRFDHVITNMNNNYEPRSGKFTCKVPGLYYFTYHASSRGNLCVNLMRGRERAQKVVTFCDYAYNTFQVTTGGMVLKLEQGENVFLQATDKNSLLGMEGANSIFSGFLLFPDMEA
Sequence of human C1q (P02747 29-245, chain 3 of 3): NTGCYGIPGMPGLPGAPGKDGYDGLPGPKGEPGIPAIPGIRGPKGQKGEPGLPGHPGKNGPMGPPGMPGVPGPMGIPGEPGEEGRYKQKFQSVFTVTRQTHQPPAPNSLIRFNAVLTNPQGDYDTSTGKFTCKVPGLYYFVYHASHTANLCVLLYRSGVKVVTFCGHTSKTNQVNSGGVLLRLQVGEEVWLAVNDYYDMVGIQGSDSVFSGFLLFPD
T1 sequence (P08637 17-208 F176V limits assumed): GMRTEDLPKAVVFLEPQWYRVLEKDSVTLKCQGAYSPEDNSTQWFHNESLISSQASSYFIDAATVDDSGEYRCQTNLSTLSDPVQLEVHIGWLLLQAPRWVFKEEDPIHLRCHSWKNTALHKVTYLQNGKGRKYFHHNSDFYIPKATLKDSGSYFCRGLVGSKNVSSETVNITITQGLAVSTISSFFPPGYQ
T4 sequence (P12314 16-288 limits assumed): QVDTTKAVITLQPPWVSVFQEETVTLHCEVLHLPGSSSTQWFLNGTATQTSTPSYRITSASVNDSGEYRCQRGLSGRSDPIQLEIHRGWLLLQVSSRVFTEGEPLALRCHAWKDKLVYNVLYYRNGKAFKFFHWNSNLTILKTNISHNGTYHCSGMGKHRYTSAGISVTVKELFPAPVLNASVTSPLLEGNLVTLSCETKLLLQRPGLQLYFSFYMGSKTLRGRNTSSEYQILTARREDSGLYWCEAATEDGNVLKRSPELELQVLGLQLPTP
T8 sequence (P08637 17-208 limits assumed): as the sequence (P08637 17-208 F176V limits assumed) above, with V160F counted along it
T7 sequence (O75015 17-200 N65S limits assumed): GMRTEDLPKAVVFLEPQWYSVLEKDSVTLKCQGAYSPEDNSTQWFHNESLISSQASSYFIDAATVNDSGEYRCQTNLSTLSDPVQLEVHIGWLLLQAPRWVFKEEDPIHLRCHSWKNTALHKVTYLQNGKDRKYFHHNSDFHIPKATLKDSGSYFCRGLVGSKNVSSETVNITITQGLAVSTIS

| Binder | EC50 (read off the curve) (human C1q) | Kd (CD16a(V) [1]) | Kd (CD32a(H)) | Kd (CD32b) | Kd (CD64) | Kd (human TNFα [2]) | koff (human TNFα [2]) | kon (human TNFα [2]) | Kd [3] | IC50 (read off the curve) (human TNFα [4]) | Fold change from IFX [5] | Kd (CD16b(NA2)) | Kd (CD16a(F)) | Fold change from wt [6] | Kd (CD32a(R)) | fold increase in affinity (CD16a(V) [7]) |
| --- | --- | --- | --- | --- | --- | --- | --- | --- | --- | --- | --- | --- | --- | --- | --- | --- |
| infliximab (antibody) chain 1: not shown chain 2: DILLTQSPAILSVSPGERVSFSCRASQFVGSSIHWYQQRTNGSPRLLIKYASESMSGIPSRFSGSGSGTDFTLSINTVESEDIADYYCQQSHSWPFTFGSGTNLEVKRTVAAPSVFIFPPSDEQLKSGTASVVCLLNNFYPREAKVQWKVDNALQSGNSQESVTEQDSKDSTYSLSSTLTLSKADYEKHKVYACEVTHQGLSSPVTKSFNRGEC | ~0.5 µg/mL | – | – | – | – | – | – | – | – | – | – | – | – | – | – | – |
| Ab-wt (antibody, human IgG1, kappa, Human IgG1 anti-TNFα antibody with wild-type Fc; also called parent antibody; wild-type antibody) heavy: not shown light: DIQMTQSPSSLSASVGDRVTIKCQASQSIFSGLAWYQQKPGKAPKLLIYGASKLASGVPSRFSGSGSGTEFTLTISGLQPADFATYYCQSYYYSSSSSDGSYAFGGGTKLTVLGRTVAAPSVFIFPPSDEQLKSGTASVVCLLNNFYPREAKVQWKVDNALQSGNSQESVTEQDSKDSTYSLSSTLTLSKADYEKHKVYACEVTHQGLSSPVTKSFNRGEC | – | 184 nM | 670 nM | 3140 nM | 2.92 nM | 0.00413 nM | 3.45e-05 s⁻¹ | 8.37e+06 M⁻¹ s⁻¹ | 1000 nM | – | – | – | – | – | – | – |
| Ab-REW-2FF (antibody, human IgG1, kappa, N-glycans at N297 (EU numbering) with greatly reduced fucose (13% fucosylated), made with 2-deoxy-2-fluoro-fucose (2FF) in the culture medium, IgG1; also called non-fucosylated variant of Ab-REW) heavy: EVQLVESGGGLVQPGGSLRLSCKASGIDFNNYGIGWVRQAPGKGLEWITYIYPGFAITNFANSVKGRFTISSDNSKNTVYLQMNSLRAEDTAVYYCARDPVYATSSGYFDLWGQGTLVTVSSASTKGPSVFPLAPSSKSTSGGTAALGCLVKDYFPEPVTVSWNSGALTSGVHTFPAVLQSSGLYSLSSVVTVPSSSLGTQTYICNVNHKPSNTKVDKKVEPKSCDKTHTCPPCPAPELLGGPSVFLFPPKPKDTLMISRTPEVTCVVVDVSHEDPEVKFNWYVDGVEVHNAKTKPREEQYNSTYRVVSVLTVLHRDWLNGKEYKCKVSNKALPAPIEKTISKAKGQPREPQVYTLPPSREEMTKNQVSLTCLVKGFYPSDIAVEWESNGQPENNYKTTPPVLDSDGSFFLYSKLTVDKSRWQQGNVFSCSVEHEALHWHYTQKSLSLSPGK light: DIQMTQSPSSLSASVGDRVTIKCQASQSIFSGLAWYQQKPGKAPKLLIYGASKLASGVPSRFSGSGSGTEFTLTISGLQPADFATYYCQSYYYSSSSSDGSYAFGGGTKLTVLGRTVAAPSVFIFPPSDEQLKSGTASVVCLLNNFYPREAKVQWKVDNALQSGNSQESVTEQDSKDSTYSLSSTLTLSKADYEKHKVYACEVTHQGLSSPVTKSFNRGEC | ~0.6 µg/mL | 33.5 nM | 1870 nM | 1130 nM | 2.93 nM | – | – | 5.8e+06 M⁻¹ s⁻¹ | 6.24 nM | ~0.007 µg/mL | 68.1 fold | 400 nM | 150 nM | 160 fold | 1450 nM | 5.5 fold |
| Ab-REW (antibody, human IgG1, kappa, IgG1; also called REW containing variant; Q311R/M428E/N434W variant of Ab-wt) heavy: EVQLVESGGGLVQPGGSLRLSCKASGIDFNNYGIGWVRQAPGKGLEWITYIYPGFAITNFANSVKGRFTISSDNSKNTVYLQMNSLRAEDTAVYYCARDPVYATSSGYFDLWGQGTLVTVSSASTKGPSVFPLAPSSKSTSGGTAALGCLVKDYFPEPVTVSWNSGALTSGVHTFPAVLQSSGLYSLSSVVTVPSSSLGTQTYICNVNHKPSNTKVDKKVEPKSCDKTHTCPPCPAPELLGGPSVFLFPPKPKDTLMISRTPEVTCVVVDVSHEDPEVKFNWYVDGVEVHNAKTKPREEQYNSTYRVVSVLTVLHRDWLNGKEYKCKVSNKALPAPIEKTISKAKGQPREPQVYTLPPSREEMTKNQVSLTCLVKGFYPSDIAVEWESNGQPENNYKTTPPVLDSDGSFFLYSKLTVDKSRWQQGNVFSCSVEHEALHWHYTQKSLSLSPGK light: DIQMTQSPSSLSASVGDRVTIKCQASQSIFSGLAWYQQKPGKAPKLLIYGASKLASGVPSRFSGSGSGTEFTLTISGLQPADFATYYCQSYYYSSSSSDGSYAFGGGTKLTVLGRTVAAPSVFIFPPSDEQLKSGTASVVCLLNNFYPREAKVQWKVDNALQSGNSQESVTEQDSKDSTYSLSSTLTLSKADYEKHKVYACEVTHQGLSSPVTKSFNRGEC | ~0.4 µg/mL | 280 nM | 780 nM | 1210 nM | 2.8 nM | 0.0033 nM | 2.04e-05 s⁻¹ | 6.22e+06 M⁻¹ s⁻¹ | 5.61 nM | ~0.007 µg/mL | 75.8 fold | 1650 nM | 2410 nM | 178 fold | 1600 nM | – |
